# Test results taken from patent US10464978B2, “Peptides and combination of peptides for use in immunotherapy against ovarian cancer and other cancers” (immatics biotechnologies GmbH, priority 2015, dated 2019).
# Molecular target: HLA-A*02:01 (Homo sapiens, UniProt P04439, D140Y/D185E/D98H/E176V/E277Q/G131W/G231S/I119V/I121R/I166T/I218V/L300P/L318F/N151K/N90K/P208A/P217A/Q86G/Q94H/R138H/R169H/T345S)
# Assay: MHC binding assay: UV-ligand exchange with beta2m ELISA (peptide exchange yield)
# Conditions: binding to HLA-A*02:01
# Outline: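 Peptide-MHC complexes formed by UV-ligand exchange, a UV-cleavable peptide being replaced by the candidate peptide. Exchange products diluted 100-fold, captured on streptavidin-coated plates for 1h at 37° C, then detected with 2 ug/ml HRP anti-β2m (1h, 37° C) and TMB, absorbance 450 nm; value is exchange yield.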
row,Substance,"Peptide exchange (MHC class I binding score, peptide exchange yield)"
1,398 (KLLEEDGTIITL; listed as Homo sapiens) [compound 398],“++” (≥20% = ++)
2,444 (GLLRDEALAEV; listed as Homo sapiens) [compound 444],“+++” (≥50 = +++)
3,615 (VLPPDTDPA; listed as Homo sapiens) [compound 615],“++” (≥20% = ++)
4,20 (RMIEYFIDV; listed as Homo sapiens) [compound 20],“+++” (≥50 = +++)
5,220 (LLQKFVPEI; listed as Homo sapiens) [compound 220],“++” (≥20% = ++)
6,582 (TLCDVILMV; listed as Homo sapiens) [compound 582],“+++” (≥50 = +++)
7,198 (KTINKVPTV; listed as Homo sapiens) [compound 198],“+++” (≥50 = +++)
8,30 (LILDWVPYI; listed as Homo sapiens) [compound 30],“+++” (≥50 = +++)
9,484 (SLIEKVTQL; listed as Homo sapiens) [compound 484],“+++” (≥50 = +++)
10,350 (ALLDVTHSELTV; listed as Homo sapiens) [compound 350],“+++” (≥50 = +++)
11,196 (YLYSVEIKL; listed as Homo sapiens) [compound 196],“++++” (≥75% = ++++)
12,407 (YLMDLINFL; listed as Homo sapiens) [compound 407],“+++” (≥50 = +++)
13,571 (LLLTTIPQI; listed as Homo sapiens) [compound 571],“+++” (≥50 = +++)
14,159 (GLVGNPLPSV; listed as Homo sapiens) [compound 159],“++++” (≥75% = ++++)
15,40 (TLLVKVFSV; listed as Homo sapiens) [compound 40],“+++” (≥50 = +++)
16,437 (SMAPGLVIQAV; listed as Homo sapiens) [compound 437],“+++” (≥50 = +++)
17,60 (SLTIDGIYYV; listed as Homo sapiens) [compound 60],“++++” (≥75% = ++++)
18,197 (ALGPEGGRV; listed as Homo sapiens) [compound 197],“++” (≥20% = ++)
19,296 (FMEGAIIYV; listed as Homo sapiens) [compound 296],“+++” (≥50 = +++)
20,13 (YLMDESLNL; listed as Homo sapiens) [compound 13],“+++” (≥50 = +++)
21,188 (GLFPVTPEAV; listed as Homo sapiens) [compound 188],“+++” (≥50 = +++)
22,465 (QLCDLNAEL; listed as Homo sapiens) [compound 465],“+++” (≥50 = +++)
23,497 (GLLEKLTAI; listed as Homo sapiens) [compound 497],“+++” (≥50 = +++)
24,308 (SQYSGQLHEV; listed as Homo sapiens) [compound 308],“+++” (≥50 = +++)
25,45 (SLWQDIPDV; listed as Homo sapiens) [compound 45],“+++” (≥50 = +++)

row,Substance,"Peptide exchange (MHC class I binding score, peptide exchange yield)"
1,480 (ALLEDSCHYL; listed as Homo sapiens) [compound 480],“+++” (≥50 = +++)
2,182 (MLLEAPGIFL; listed as Homo sapiens) [compound 182],“+++” (≥50 = +++)
3,574 (YLLQEPPRTV; listed as Homo sapiens) [compound 574],“++” (≥20% = ++)
4,403 (KLYDRILRV; listed as Homo sapiens) [compound 403],“++” (≥20% = ++)
5,347 (SLFKHDPAAWEA; listed as Homo sapiens) [compound 347],“++++” (≥75% = ++++)
6,299 (YLLETSGNL; listed as Homo sapiens) [compound 299],“+++” (≥50 = +++)
7,359 (YLLPESVDL; listed as Homo sapiens) [compound 359],“+++” (≥50 = +++)
8,317 (SLAALVVHV; listed as Homo sapiens) [compound 317],“+++” (≥50 = +++)
9,580 (LLMENAERV; listed as Homo sapiens) [compound 580],“++” (≥20% = ++)
10,100 (YLLSTNAQL; listed as Homo sapiens) [compound 100],“++++” (≥75% = ++++)
11,576 (ILLNNSGQIKL; listed as Homo sapiens) [compound 576],“++++” (≥75% = ++++)
12,364 (LLQNEQFEL; listed as Homo sapiens) [compound 364],“+++” (≥50 = +++)
13,371 (FLQAHLHTA; listed as Homo sapiens) [compound 371],“++++” (≥75% = ++++)
14,344 (YLQDQHLLLTV; listed as Homo sapiens) [compound 344],“+++” (≥50 = +++)
15,605 (KLYEAVPQL; listed as Homo sapiens) [compound 605],“+++” (≥50 = +++)
16,595 (VLLSIYPRV; listed as Homo sapiens) [compound 595],“+++” (≥50 = +++)
17,334 (TLTKVLVAL; listed as Homo sapiens) [compound 334],“+++” (≥50 = +++)
18,77 (ILVEADGAWVV; listed as Homo sapiens) [compound 77],“++++” (≥75% = ++++)
19,23 (VLLDDIFAQL; listed as Homo sapiens) [compound 23],“+++” (≥50 = +++)
20,569 (KLVDRTWTL; listed as Homo sapiens) [compound 569],“+++” (≥50 = +++)
21,36 (YVLEDLEVTV; listed as Homo sapiens) [compound 36],“++” (≥20% = ++)
22,349 (SLTEYLQNV; listed as Homo sapiens) [compound 349],“++++” (≥75% = ++++)
23,116 (YHIDEEVGF; listed as Homo sapiens) [compound 116],“+” (≥10% = +)
24,612 (YLYNEGLSV; listed as Homo sapiens) [compound 612],“+++” (≥50 = +++)
25,126 (VLAYFLPEA; listed as Homo sapiens) [compound 126],“++++” (≥75% = ++++)
